assay: label from the status in PepcDB records

Row | Sequence | protein production
1 | MDITMKIAPLLLALGAAGLACCAHAADPKPFTVQQLVKLNKLHSAVVSHDGTKLVYGLKTVNDKGEASSDLYLLDLTQADAKPLQLTSAAGTEHDISFANDDKSIYFLASRSGSSQLFQLPLTGGEAQQVSDLPLDIDGYKLSNDGKQIVLSMRVFPECKDLACSKDKFKAEEERKSTGREYKQLMVRHWDTWEDHARNHLFVGTLNGEKLTKVVDITQGLDTETPPKPFSGMEEVTFTPDGQYVVYSAKAPSKDQAWTTNYDLWQVSVNGGKATNLTADNIAWDAQPTFSSDGRYMAYLAMTKPGFEADRYRIMLRDTSTGQSKEVAPLWDRSPSSLMFAPDNRTLYVTAQDIGQVSIFKVNTQFGDVQSVYSDGSNSLIAIADDQLIFDSKTLVEPGDLYRINTDGQGLKRLTEVNKDKLAEIKFGEFQQFSFKGWNNEDVYGYWIKPANYQEGKKYPIAYLVHGGPQGSFGNGFSGRWNAQLWAGAGYGVVMVDFHGSTGYGQAFTDSISQDWGGKPLEDLQKGLAAVSQQQKWLDPQNACALGGSYGGYMMNWIQGNWNDGFKCLVNHAGLFDMRSMYYVTEEVWFPEHEFGGTYQDNKALYEKFNPVNYVENWKTPMLVIHGEKDFRVPYGQGLAAFSFMQRKGIPSELLIYPDENHWILKPENLEQWYANVFRWMDSWTKK | failed
2 | MDIVTLKDFYASVLGKRVQETLCGQLNLCWPDLTGKRVMGFGYALPYLSALRMRAQQCLAFMPAGQGALPWPCADKVATALVFEEDLPLPDASIDCILLIHALEYTENSFETLNEIWRVLVPNGQLIVIVPNRSGLWARNACTPFGYGEPYSRQQIVRLFEKTHFVSGSIQEVVHYMPSSGSVSRFFSFFYEPVARHLLPYFGGLLICQAQKRVYQGLEHHHHHH | failed
3 | MDIWNFFTSFIVQSIAFLTHEVGVGEAVAIILFTLIGRLVLMPINLLAMANMYRNKKAISALKPELDKIKVIHKDKPNEIAKSTMALYKKNNIKILDKKSVINIASQGVFGFGMFQALQQIVFNSKFAWIANIAKPDVALALLVGVITYFSMIMMPGSAEQTSTLLFIIPAIICIITLISFPSAIGLYWATSSVTSLLQSLVLNNYFQKQEINKAI | failed
4 | MDKENEYNKMCEEHDKYFKNLFKNLNRKIEYTFACEKENTYDDSVSNSIYTNSNQNEDNISYNNNNINNDNISSSSISKNSNNTKNSSFNETKNINDDKIKYDDKNVYDDKNINDDKNIYDDKYLYDDKNINHDKYSYDDKNINDDKYLYDDKNLYDGNNIYEENNYNNNNTNGHQMKSPTYHMKNSVQNITIYTSINKNDISKDINKINEKNTANINTSHIYQIKNDENNNNIYNNVEHIKSLCESYKNYDNDHLLYYKKHSHSKEDIHNYPIFNNAKTSQLENSNNDFLNIMNNNIKNNISEMESSKKKKKSNLLITNEIEDKLSNIQINHTNKINENNTIQYGQKTKGNKIGNHKTNIKEKLNDLIENIHLKNNKIENMNNMDDMNDMDNMNNMDDMDNTDNMNNRGNMNNRDNINNRDNMNNSNNMDNKDNMNNKDNINNKDNMNNKDNINNKDNINNLNCIDNMKHDKLQKDHLETPPIHKSPITRKSKNNIMDILNNKMNITSLENVDTSTPKYVKYNTIHREIMNPRQHFFNQNKSSIDHIICL | failed
5 | MDKESVDTLFGMGLTAYQAKDYTKAIHALEHLREHDPSYTTLYSYLAKSYEENGEPEKAIAVLRDGLTQDEFNKEMFLEAGKLAVTLRLPEEAEEFYRQAIVLDEEFSEAIMQLNKLLLAKENYEGVIELVEGLGEEVISEPQIFWDVSVAYQETEQYNKAKANYELAYPHFTNNPTFLKEYGLFLREEGEHAKSQEVLRSYLELEPLEHHHHHH | not failed
6 | MDKFYHFLTLTGIGLYWFLVAGVTLRVVLKRRAVSVSLAWLMIIYILPVLGVACYFLFGELNLGRKRAERAKEMFTPFAKWFSQLNDCHAHMPETMGRHIYRIDELCNNRLGLPALSGNTLSLQQSPDEILHSIIEDIENAKTSIRMVFYIWHPGGLADSVASALIQASKRGVDVKLLLDSAGSPRFFRSPWYKMMKDSGIEVIQALEVKMWRMFLRRLDLRQHRKIIVIDDEIAYTGSMNLVDPAYFKQSSGVGRWIDIMVRVTGPTVNVLSAIHCWDWEVETGERYLPKLPECKIDNSKYQHPIQVVPSGPGMPEYLIYQVLTLAINQANRSVRITTPYFVPNTDLLETLKMTAQRGIDVELIIPHKNDSLMVQWASRAFYSELLAAGVKIYEFYGGLLHTKSVVIDDQFCLVGTVNMDMRSLWLNFEVTLAVDDEEFTKQLSWLQDGYIKQSHPVVLDEWEKRSLYSRFLERVFYLFNPLL | failed
7 | MDKHIIGENAGKLWRLLSTDVHRKWTLQEVKDATGFNDLEAASAIGWLAREDKIQFELEHHSTKDKNVFLYLMLNVYFLEHHHHHH | not failed
8 | MDKHKKNNQKEKRVKRNLKTLLLGSPREITIPGSRFPNGTQNLVPVVDIQKGVLITEDGRYIKVLEIVPTNFYLKSRIEQQNIIYYFSCYLKIAPQSLQILVCTQRADIDAYCDQMEKYYNREKNENCKAMILEDAQLVNYLASYEAVTRRFYLIYEYKGEATEFTEISKELADQAETAYQYLDYCGLEVLRHDNYDEFLLRTVYTAYHKQSARNINFSALMEQVGPVFNTPEITEDQLEEEDSEGITTIQDVLAPTEADLEHSKYILIDGVYHAYLYITGYSYPTERGLAWLSPLIELGDGISLSFFLEKKRKEQILSKVVKTTMINRSRLRDIEDIRADYEELDDAIYSGMYIKDRLNRDGEDFFYMHTLIEVTALDETTLNKRIKQVQNLCVSMDMTARRADWCHEQCFRSMLPIAKLDMDIAKRTQRNVLTSGAAGAFPFSSFELCDNKGVLMGINLHNNSAVIVDNFNSDIYSNGNLAIFGMSGAGKTYTLLLLAMRLRMCGVQVFIIAPEKGFEYRCACEAIGGQFLRLSPGSEDCINLMEIRRSTLDIDSNLANNIQRNDSVLLSKVQDLHTYIRLRYPQITPEEAYQLNIAILECYESFGITKDNRSLLNPDGSFKAMPDFTHLYSCLLKYPSLKNVALAVKEIIDFGMGGQTNVDLFSSFIVLDTSGAKKKDISSSTFVATSFIRDELSRSRTRKKAVLGDELWVIAGEEGNEQAADFIIEMVKLIRGYGAIFVSATQNTLDYFALRDGKFGDALLNNSRLKLLLQMEEAEAIKLQEKLGLSDEEVMQVVRCGRGQGLLCAGKNRIGIEIRSSQTEYELITTNRTDLEKREARTDTAEL | failed
9 | MDKILEILKDFGIVELRPPQKKALERGLLDKNKNFLISIPTASGKTLIGEMALINHLLDGNKNPTNKKGIFIVPLKALASEKYEEFKSKYERYGLRIALSIGDYDEDEDLSKYHLIITTAEKLDSLWRHKIDWINDVSVVVVDEIHLINDETRGGTLEILLTKLKEFNVQIIGLSATIGNPDELAEWLNAELIVDDWRPVELKKGIYKNEAIEFINGEIREIKAVDNNDIYNLVVDCVKEGGCCLVFCNTKRNAVNEAKKLNLKKFLTEEEKIRLKEIAEEILSILEPPTEMCKTLAECILNGSAFHHAGLTYQHRKIVEDAFRKRLIKVICCTPTLCLNANTEILQESGFRKITELNKDEKVFALCGKEIKPVDGWKVHKTPQHEYNIVVKTVNGLEITTTPNHIFLVKENGSLKEKEAKDLKVGDYVATVDRIRVKEKDIDLSNGDLYFIGYFIGDGYTGVIEKNTLKATPDLAFNPKYPPNFDDSELHKKYFLKCRISKGVAHYIYSKKLRKIFNKLNMLTKDNKNIDAFCNLPLDKLAYLIAGLFDSDGYIYLNRKNIEFYSISEKLVEQLQFVLLRFGIHSSIRKKKTKTMVSPTNGKEYKCKDIYVLTIRDFMSIKRFYENIPLRHEEKRRKLEEIIKNKEIGQIPSEFVALRFTPIAKIWCDCGFSVDLTMFKPRTKRQRELNKKRVKLLFELLDGKKLITNYKEYYSKRKNPYFDFIVREKINGNNYYSLNEKGRVLMSLLNKHIKDKENLEEMYNFLVNLEKCPICGKPIHKEMRYSWKKECYDGDIYWDRIKEIKKIKVNDKYAYDIELPDDGSNSHYIVANGFIVHNSAGLNLPCRRAIVKDLTRFTNKGMRYIPIMEIQQCIGRAGRPGLDPYGEGIIVAKNDRDYLRAYQALTQKPEPIYSKLSNQAVLRTQLLGLIATGEIRDEYDLEWFIRNTFYAHQYGNLREVAKNINEVIRFLEENEFIIDFMPTELGKRVSELYIDPLSAKFIIDGLEEMENEEEIYYLYLISKTLEMMPNLRVYNSEELNLIDEMDSLGIKSFEIEDLEAFKTAKMLYDWINEVPEDEILKRYKIEPGILRYKVENAVWIMHALKEIAKLIGKSSDIPEKLEIRLEYGAKEDIIELLSIKYIGRVRARKLYNAGIRSIEDIINNPSKVASIIGEKIAKKILDELGVKFGQQKLSF | failed
10 | MDKLEAMQVYVCVVDTHSFIRAAEVLGVPRSTVSRVVKELESWLKIQLLQRTTRKLSVTAEGRRYYEECKRVLADIAAMESSFPGRAAQPKGRFKVGMPQSLARHCIIPTLPAFLRQYPELELILCSSDSVEDIILQGYDCVIRAGRIDDSTTLVARPLASFNWVIAASPTYIERYGSPENLDDLQKHYAVGYLNHRTGRTTDWFFTREGEDYAMRVQETLVVDDTDAYIQAGIQGLGLIRVASYLVAPYLHSGALVTCMDNHSYDLPLALVYPQNRFLPPAVRAFYHWCKTALSQPEPFC | failed
11 | MDKLNKITVPASQKLRQLQKMVHDIKNNEGGIMDKIKKLKVKGPPSVPRRDYALDSPADEEEQWSDDFDSDYENPDEHSDSEMYVMPAEETGDDSYEPPPAEQQTRVVHPALPFTRGEYVDNRSSQRHSPPFSKTLPSKPSWPSAKARLASTLPAPNSLQKPQVPPKPKDLLEDEADYVVPVEDNDENYIHPRESSPPPAEKAPMVNRSTKPNSSSKHMSPPGTVAGRNSGVWDSKSSLPAAPSPLPRAGKKPATPLKTTPVPPLPNASNVCEEKPVPAERHRGSSHRQDTVQSPVFPPTQKPVHQKPVPLPRFPEAGSPAADGPFHSFPFNSTFADQEAELLGKPWYAGACDRKSAEEALHRSNKDGSFLIRKSSGHDSKQPYTLVAFFNKRVYNIPVRFIEATKQYALGKKKNGEEYFGSVVEIVNSHQHNPLVLIDSQNNTKDSTRLKYAVKVS | not failed
12 | MDKLVKYQELVKKLLTNYASDDVSDQDVEVQLILDTERNHYQWMNVGWQGLNRIYRCVIHFDIKDGKIWLQQNLTDRNPAEELVMMGVPREDIVLGLQAPYKRQYTDYGVA | not failed
13 | MDKNIIIGAMTALITPFKNGKVDEQSYARLIKRQIENGIDAVVPVGTTGESATLTHEEHRTCIEIAVETCKGTKVKVLAGAGSNATHEAVGLAKFAKEHGADGILSVAPYYNKPTQQGLYEHYKAIAQSVDIPVLLYNVPGRTGCEISTDTIIKLFRDCENIYGVKEASGNIDKCVDLLAHEPRMMLISGEDAINYPILSNGGKGVISVTSNLLPDMISALTHFALDENYKEAKKINDELYNINKILFCESNPIPIKTAMYLAGLIESLEFRLPLCSPSKENFAKIEEVMKKYKIKGF | not failed
14 | MDKNNNNLRLILAIALSFLFIALYSYFFQKPNKTTTQTTKQETTNNHTATSPNAPNAQHFSTTQTTPQENLLSTISFEHARIEIDSLGRIKQVYLKDKKYLTPKQKGFLEHVGHLFSSKENAQPPLKELPLLAADKLKPLEVRFLDPTLNNKAFNTPYSASKTTLGPNEQLVLTQDLGTLSIIKTLTFYDDLHYDLKIAFKSPNNLIPSYVITNGYRPVADLDSYTFSGVLLENSDKKIEKIEDKDAKEIKRFSNTLFLSSVDRYFTTLLFTKDPQGFEALIDSEIGTKNPLGFISLKNEANLHGYIGPKDYRSLKAISPMLTDVIEYGLITFFAKGVFVLLDYLYQFVGNWGWAIILLTIIVRIILYPLSYKGMVSMQKLKELAPKMKELQEKYKGEPQKLQAHMMQLYKKHGANPLGGCLPLILQIPVFFAIYRVLYNAVELKSSEWILWIHDLSIMDPYFILPLLMGASMYWHQSVTPNTMTDPMQAKIFKLLPLLFTIFLITFPAGLVLYWTTNNILSVLQQLIINKVLENKKRMHAQNKKEH | failed
15 | MDKPILKDSMKLFEALGTIKSRSMFGGFGLFADETMFALVVNNQLHIRADQQTSSDFETQGLKPYVYKKRGFPVVTKYYAISSELWESSDRLIEVAKKSLENAKL | not failed
16 | MDKPVLKDSMRLFEQLGRVKSRSMFGGFGIFVDETMFALVVNDTLHIRADDATIEKYKQQGYEPYVYKKRGFPVVTKYYALPEDCWSHPDSILNEVRAALEVAKA | failed
